# According to publication PMC8794255, “Small molecule inhibitor of Igf2bp1 represses Kras and a pro-oncogenic phenotype in cancer cells” (RNA Biology, 2021):
# Experiments:
# [1] = target: Igf2bp1 (human) (UniProt Q9NZI8); assay: competition; details: MST/EMSA: 10 mM Tris pH 7.5, 100 mM NaCl, 0.1 mM EDTA, IGEPAL, tRNA, heparin, 0.5-2 mM DTT, room temperature (MST protein in PBST mixed 1:1); FP: 10 mM Tris pH …
# [2] = system: Igf2bp1 KH34 (human); assay: MST; details: MST/EMSA: 10 mM Tris pH 7.5, 100 mM NaCl, 0.1 mM EDTA, IGEPAL, tRNA, heparin, 0.5-2 mM DTT, room temperature (MST protein in PBST mixed 1:1); FP: 10 mM Tris pH …
# [3] = system: Igf2bp1 (human); assay: MST; details: MST/EMSA: 10 mM Tris pH 7.5, 100 mM NaCl, 0.1 mM EDTA, IGEPAL, tRNA, heparin, 0.5-2 mM DTT, room temperature (MST protein in PBST mixed 1:1), FP: 10 mM Tris pH …
# Chain of Igf2bp1 (human) (UniProt Q9NZI8) (Q9NZI8 whole entry): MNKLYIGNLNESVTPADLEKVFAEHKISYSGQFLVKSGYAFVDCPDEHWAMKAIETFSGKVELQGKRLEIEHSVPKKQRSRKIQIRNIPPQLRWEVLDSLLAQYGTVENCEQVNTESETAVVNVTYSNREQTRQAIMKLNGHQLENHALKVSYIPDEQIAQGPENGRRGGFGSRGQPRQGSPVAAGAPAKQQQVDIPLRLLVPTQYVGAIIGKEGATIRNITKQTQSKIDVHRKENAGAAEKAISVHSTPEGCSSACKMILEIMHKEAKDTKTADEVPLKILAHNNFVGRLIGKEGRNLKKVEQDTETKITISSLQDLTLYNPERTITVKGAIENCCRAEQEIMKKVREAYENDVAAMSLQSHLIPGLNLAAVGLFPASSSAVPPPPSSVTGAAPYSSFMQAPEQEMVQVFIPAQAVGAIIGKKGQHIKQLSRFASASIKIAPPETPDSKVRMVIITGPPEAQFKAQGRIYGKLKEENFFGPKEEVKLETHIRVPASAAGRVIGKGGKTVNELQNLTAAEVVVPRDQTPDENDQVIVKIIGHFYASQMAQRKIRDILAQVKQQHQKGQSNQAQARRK
Substance,binding [1],Kd [2] [µM],Kd ([3]; 50 uM 7773) [µM],Kd ([3]; 100 uM 7773) [µM],Kd [3] [µM],Kd ([3]; no compound) [µM]
GGGUGAGGAGUACAGUGCAAUGAGGGACCAGUACAUGAGGACUGGGGAGGGCUUUCUUUGUGUAUUUGCCAUAAAUAAUACUAAAUCAUUUGAAGAUAUUCACCAUUAUAGAGAACAAAUUAAAAGAGUUAAGGACUCUGAAGAUGUACCUAUGGUCCUAGUAGGAAAUAAAUGUGAUUUGCCUUCUAGAACAGUAGACACAA [Kras 2 RNA],binds more weakly,,,,,
Kras 6 RNA,,0.2,0.063,0.12,0.02,0.056
